The source of these data is publication PMC8264776.

The data set addresses T1, OsbHLH148 (bHLH148-6xHis) (Oryza sativa) (UniProt Q75KV9).
T1 sequence: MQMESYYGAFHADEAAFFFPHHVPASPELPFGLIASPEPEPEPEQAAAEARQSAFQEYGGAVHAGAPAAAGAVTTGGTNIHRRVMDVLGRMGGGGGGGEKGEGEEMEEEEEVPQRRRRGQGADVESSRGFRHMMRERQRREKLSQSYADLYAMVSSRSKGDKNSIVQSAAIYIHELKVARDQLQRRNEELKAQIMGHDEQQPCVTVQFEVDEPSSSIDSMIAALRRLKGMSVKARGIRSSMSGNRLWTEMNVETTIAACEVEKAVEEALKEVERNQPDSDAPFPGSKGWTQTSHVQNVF
The data set is described as follows: EMSA. The note with it: 10 mM Tris pH 7.5, 50 mM KCl, 1 mM DTT, 2.5% glycerol, 5 mM MgCl (so in the source), 0.05% NP-40, 50 ng/ul poly(dI-dC); 20 min room temperature; 5% native PAGE.

For the sequence “AAATAAATAAGACAGACGATTAAAATTAGATACGTAAATCATGGCGGCGTTTAAAATGGGATGGATTGAGTAGTACACTGTACCAGCGTACCCTTTTGTACTCATAGGAAGACTTCGACATTTTCAAACACTTGAGGACAACTTTCCAATTCAATAACAATACTACTCCACACGTGGCTGAAATGGCTGAAAAAGTTCCA (double strand) [OsRAP2.6 promoter fragment]”, the binding entry was “binds”.
